Data on 2 substances can be found in paper PMC3627495.

Test [1] concerns the target His-YFP-EB3 and His-CFP-EB3, full-length wild type (human) (UniProt Q9UPY8). Nature of the test: FRET or BRET.
In test [2] the target is His-YFP-EB3 S162E and His-CFP-EB3 S162E, full-length phospho-mimetic mutant (human) (UniProt Q9UPY8). Nature of the test: FRET or BRET. For orientation: In BRET a luciferase serves as donor, and the signal depends on an acceptor being close.

On to “His-YFP-EB3 S162E and His-CFP-EB3 S162E, full-length phospho-mimetic mutant (from UniProt Q9UPY8 1-281) (natural protein)”, for which the t1/2 of chain exchange came out at 1.01 h in test [1] and 1.39 h in test [2].

With “His-YFP-EB3 and His-CFP-EB3, full-length wild type (from UniProt Q9UPY8 1-281) (natural protein)”, the t1/2 of chain exchange in test [1] is 2.66 h.
